Experiment: yeast display, Sf9 membrane polyspecificity reagent, FACS + sequencing; frameworks hold sequencing errors
Procedure, shortened: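 Polyreactivity labels are assigned by the sorting gate from which each nanobody was recovered. The gates were low and high (top ~1%), set on anti-HA fluorescence for expression and streptavidin fluorescence for reagent binding. Before sorting, galactose-induced (36–48 hours) yeast display cells were stained for 1 hour at 4 °C with 10% biotinylated, detergent-solubilized Sf9 membrane reagent.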

Sequence	polyreactivity (PSR sort gate)
QVQLVESGGGLVQAGGSLRLSSAASGFIFKYNAMGWYRKAPGKERELGAAITWSGGSTYYADSVKGRFTISRDNAKNTVYLQMNSLKPEDTAVYYCAARPYRTKLIYGYWGQGTHVTVSS	high polyreactivity
QVQLVESGGGLVQAGGSLRLSCAASGSIFKIYAMGWYRQAPGKERELVAAITINGGSTYYADSVKGRFTISRDNAKNTVYLQMNSLKPEDTAVYYCAASADWWYEYWGQGTQVNVSS	low polyreactivity
QFQLVESGGGLDQAGGSLRLSCAASGITVYYYALGCYRQAPGKERELVAAITSSGGSTYYADSVKGRFTISRDNAKNTVYLQMNSLKPEDTAVYYCAARSYRGSSTYQGHGYWGQGTQVTVSS	high polyreactivity
QVQLVESGGGLVQAGGSLRLSCAASGSIFPYYTMGWYRQAPGKERELVAGISSGGSTNYADSVKGRFTISRDNAKNTVYLQMNSLKPEDTAVYYCNARRYWLRYDYWGQGTQVTVSS	low polyreactivity
QVQLVESAGGLVQAGGSLRLSCAASGRTFGWYAMGWYRQAPGKERELVAAITSSDDSTYYADSVKGRFTISRDNAKNTVYLQMNSLKPEDTEVYYCNKVKYFARSAYGYWGLGTQVTVSS	low polyreactivity
QVQLVESGGGLVQAGGSLRLSCAASGLIFKVYAMGWYRQAPGKERELVAAITYSGGSTDYADSVKGRFTISRDNAKNTVYLQMNSLKPEDTAVYYCNVEKVGHVNSYGYDYWGQGTQVTVSS	low polyreactivity
QVQLVESGGGLVQAGGSLRLSCAASGSTFSTYAMGWYRQAPGKERELVAAIRSGGSTYYADSVKGRFTISRDNAKNTVYLQMNSLKPEDTAVYYCAAKPRNYSYRYYYWGQGTQVTVSS	high polyreactivity
QAQLQESGGSLLQAGGGLRLSCAASGYISVGSVMGWYRQAPSKERELVASIDQGANTNYADSVKGRYTISRDNAKNNVYLQMNSLKPEDSAVYYCATETTYILNYWGQGTQVTVSS	low polyreactivity
QVQLVESGRGLVQAGGSLRLSCAASGFTFYRYAMGWYRQAPGKERELVATISASGGSTYYADSVKGRFTISRDNAKNTVYLQMNSLKPVDTAVFYCARYIYRSAFDYWGQGTQVTVSS	high polyreactivity
QVQLVESGGGLVQAGGSLRLSCAASGRTFYKYGRGWYRQAPRKERELVASISSGGNTYYADSVKGRFTISRDNAKHTVYLQMNSLKPDASAVFYCAAVNYWPFYYYVYGYWGQGTQVTVSS	high polyreactivity
QVQLVESGGGLVQAGGSLRLSCAASGRTFYKYAMGWYRQAPGKERELVAAISGGGTTNYADSVKGRFTISRDNAKNTVYLQMNSLKPEDTAVYYCNAARTRWATGYDYWGQGTQVTVSS	low polyreactivity
QVQLVESGGGLVQAGGSLRLSCAASGFTFPVYTMGWYRQAPGKERELVAAISTSGAGTYYADSVKGRFTISRDNAKNTVYLQMNSLKPEDTAVYYCAAYKRGRPEMYYWGQGTQVTVSS	high polyreactivity
QVQLVESGGGLVQAGGSLRLSCAASGITFRYYTMGWYRQAPGKERELVAAITWSGSSTYYADSVKGRFTISRDNAKNTVYLQMNSLKPEDTAVYYCNAVPYDYLADYWGQGTQVTVST	low polyreactivity
QVQLVDSGGGLDQAGGSLRLSCAASGLTFAYNTMGWYRQAPGKERELVADISRSAGSTYYADSVKVRFTISRDNAKNTVFLQMNSLKPDDTAVYYCNAAPYYVLYLLWSSNTYDYWGQGTQVTVSS	high polyreactivity
QVQLVESRGGLVQAGGSLRISCAASGNIFLDYVMGWSRQAPGKERELVAAINSGGSTYYADSVKGRFTISSDNAKNTVYLQMNSLKPEDTAVYYCAADDYYKFDYWGQGTQVTVSS	low polyreactivity
QVQLVESGGGLVQAGGSLRLSCAASGRIFGVYAMGWYRQAPGKERELVAAITARGGSTYYADSVKGRFTISRDNAKNTVYLQMNSLKPEDTAVYYCATRLYKRTRTITYGYWGQGTQVTVSS	high polyreactivity
QVQLVESGGGLVQAGGCLRLSCAASGFTFIYYVMGWYRQAPGIERELVAAINGRGDRKYYADSVKGRFTISRDNAKNTVYLQMTSLKPEETAVYYCNARTHTWGYSAKFDYWGQGTQVTVSS	high polyreactivity
QVQLVESGGGLVQAGGSLRLSCAASGFIFGYNAMGWYRQAPGKERELVAAITRGGITYYADSVKGRFTISRDNAKYTVYLQMNSLKPEDTAVYYCASDWSVVYTDYDSWGHGTQVTVSS	low polyreactivity
QVQLVESGGGLVQAGGSLRLSCAASGSIFGYNAMGWYRQAPGKERELVAAINYNGGRTYYADSVKGRFTISRDNAKNTVYLQMNSLKPEDTAVYYCNKVYLRTSGRDYWGQGTQVTVSS	high polyreactivity
LVQVVESGGGLVQAGGSLGLSCAASGRIFRDYAMGWYRPATGKERELVAAISWSTVHTYYADSVKGRFTISRDNAKNTVYLQMNCLKPEDTAVYYCAVDRPGLTYYDYDYWGQGTQVTVSS	low polyreactivity
QVQLVESGGGLVQAGGSLRLSCAASGSTFNQYDMGWYRQAPGKERELVAAITWSGTSTYYADSVKGRFTISRDNAKNTVYLQMNSLTPEDTAVYYCAADDPFHSSCWTYRYGYWGQGTQVTVSS	low polyreactivity
QEQLQGSGGGLVQAGGSLRLTCAASGYIFQNVPMGWNRQAPGKERQLLAGIDNGTSTNYADSVNGRFTISRDNAKNTVYLQMNSLKPEDTAVYYCAAAGQADDTLGYWGQGTQVTVSS	low polyreactivity

Sequence	polyreactivity (PSR sort gate)
QVQLVESGGGLVQAGGSLRLSCAASGSIICVNAMGWYRQATGKERELVAAISSTGGSTYYADSVKGRFTISRDNAKNTVYLQMNSLKPEDTAVYYCNTDYSKSIGDGYAGFDYWGQGTQVTVSS	low polyreactivity
QVQLVESGGGLVQAGGSLRLSCAASGSTFQSYAMGRYRQAPGKERELVAAISFSGGSTYYADSVKGRFTISRDNAKNTVYLQMNSLKPEDTAVYYCAKRGWVYFHGYDYWGQGTQVTVSS	low polyreactivity
QVQLVESGGGLVQAGGSLRLSCAASGFTFRSYAMGWYRQAPGKERELVADISIRGGGTYYADTVKGRFTISRDNAKNTVYLQMNSLKPEDTAVYYCAAERYKPFLWPRYDYWGQGTQVTVSS	low polyreactivity
QVQLVESGGGLVQAGGSLRLSFAASGRTFYIYAMGLYRQDPGKEREMVAAITYGGGRTFYADSVKGRFTISRDNAKYTVYLQMNSLKPEDTAVYYCAKTDTYPRYGRGYDYWGQGTQVTVSS	high polyreactivity
QVQLVESCGGLVQAGGSLRLSCAASGRNIWDYGMVWYRQAPGKERELVAVITWGGGSTYYADSVKGRFTISRDNAMNTVYLQMNSLKPEDSAVYYCAKEYHYYYWGQGTQVTVSS	low polyreactivity
QVQLVESGGGLVQAGGSLRLSCAASGSTFDLNAMGWYRQAPGKERELVARISSVGSTNYADSVKGRFTISRDNAKNTVYLQMNSLKPEDTAVYYCNAGFWDLYDYWGQGTQVTVSS	low polyreactivity
QVQRVESGGGLVQAAASLRLSCAASGRTFYVYTMGWYRPAPGKERELVAAITSGGSTNYADSVKGRFTISRDNAKNTVSLHMNSLKPEVTAVYYCAARVSTVFKRYYYWGQGTQVTVSS	high polyreactivity
EVQLVESGGGLVQAGGSLRLSCAASGRIFVHYAMGWYRQAPGKERELVAAITSGSSTNYADSVKGRFTISRDNAKNTVYLQMNSLKPEDTAVYYCAADYSVHRVRDRWFDYWGQGTQVTVSS	low polyreactivity
QVQLVESGGGLVQEGGSLRLSCAASGSIFGWYAMGWYRQAPGKEWELVAAIRRGGSTNYADSVKGRFTISRDNAKNTVYLQMNSLKAEVTAVYYCAAGKSGYSKRIFRYSFDYWGQGTQVTVSS	high polyreactivity
QVQLVESGGGLVQAGGSLRLSCAASGLTMTWNSMGWYRQAPGKERELVAAIRWRGSSTYYADSVKGRFTISRDNAKNTVYLQLNSLKPEDTAVYYCAAEPRYYHVGYEYDNWGQGTQVTVSS	high polyreactivity
QVQLVESGGGLVHAGGSLRLSCAASGSTFTRNAMGWYRQAPGKERELVATISWRSGSTYYADSVKGRFTISRDNAKNTVYLQMNSLKQEDTAGYYCAADYLNIYNYWGQGTQVTVSS	high polyreactivity
QVQLVESGVGLVQAGGSLRLSCAASGSIFASYTMGWYIQAPGKERELVAAINRSGGSTYYADSVKGRFTISRDNAKNTVYFQMNSLKPDDTAVYYCAAGYIRRYYGYDYWGQGTQVTVSS	high polyreactivity
QVQLVESGGGLVQAGGSLRLSCAASGRTFYLYGMGWYRQAHGKETELVAAITLSDGSTYYADSVKGRFTISRDNAKNTVYLQMNSLKPEDTAVYYCAARDYPFPYAMNYWGQGTQVTVSS	low polyreactivity
QVQLVESGGGLVQAGGSLRLSCAASGFTFPLYAMGWYRQAPGKETELVATISSSGSTYYADSVKGRFTISRDNAKNTVYLQMNSLKPEDTAVYYCIAAIQSYEGSGRYFRFDYWGQGTQVTVSS	low polyreactivity
QVQLVESGGGLVQAGGSLRLSCAASGSTFYEYAMGWYRQAPGKERELVAAITSGGSTYYADSVKGRFTISRDNAKNTVYLQMNSLKPEDTAVYYCAADPRIRRGDRSTHGYDYWGQGTQVTVSS	low polyreactivity
QVQLVESGGGLVQAGGSLRLSCAASGSTFWPYTMGWYRPATGKESELVAAISLSGGSTYYADSVKGRFTISRDNAKNSVYLQMNSLKPEDTAVYYCAAEGGYQNWHYLYEYWGQGTQVTVSS	low polyreactivity
QVQLVESAGGLVQAGGSLRLSCAASGSILDRYAMGWDRQAPGKERELVAAITYSSGRTYYADSVKGRFTISRDNAKNTVYLQMNSLKPEDTAVYYCAARPFKRSNGGGQYYYWGQGTQLTVSS	high polyreactivity
QVKLVESGGGLVQAGGSLRLSCAASGRIFIEYARGWYRQAPGKERELVASSTSSGGRTTYADSVKGRFTISRDNAKNTVYLQINSLKPEDTAVYYCNKDYYPRGHTRFGYWGVGTQVTVSS	low polyreactivity
QVQLVESGGRLVQAGGSLRLSWAASGITFFVNAMGWYRPAPGKERELVAVISRGDSTNYADSVKGRFTISRDNAKNTVYLLMNSLKPEDTAVYYCAADGSRAGLEGNDYWGQGTQVSVSS	low polyreactivity
QVQLVESGGGLGHAGGSLRLSCAASGGIYDYYAMGWNRQAPGKERELVTAITRSGSSTFYADSVKGRFTISRDNAKNTVYLQMKSVKPEDTAVYYCAAPYYYFAVYYGYIFEYDYWGQGTQVTVSS	low polyreactivity
QFQIVESGGGLVQAGGSLRISCAASVFIFARYAIGWYRQAHGKEREFVAAISSSGGSTYYADSVKGRFTISRDNAKNTVYLQMNSLKPADTAVYYCNVRLRIRSGYWGQGSQVTVSS	high polyreactivity

From the nanobody polyreactivity screen of Harvey et al. (2022)
